Measured values taken from publication PMC12403049, “Structural basis of ClC-3 transporter inhibition by TMEM9 and PtdIns(3,5)P2” (Nature Structural & Molecular Biology, 2025).

What was measured:
[1] = biological target: the molecule itself; assay: cryo-EM structure; ClC-3 alone, 3 mg/ml, no exogenous ligands, glyco-diosgenin, 50 mM Tris-HCl pH 8, 150 mM KCl, 2 mM DTT; C2 symmetry
[2] = biological target: the molecule itself; assay: cryo-EM structure; ClC-3 co-expressed and co-purified with T9A, 5 mg/ml, no exogenous ligands, glyco-diosgenin, 50 mM Tris-HCl pH 8, 150 mM KCl, 2 mM DTT; four classes by 3D classification

Protein | stoichiometry N [1] | stoichiometry N [2]
human ClC-3 purified alone (C-terminal mCerulean tag removed) (natural protein, human ClC-3 (P51790), the long isoform used for structural analysis (proton glutamate E339); The cloning of a C-terminally tagged ClC-3 is not described elsewhere in the methods; Residues of the PreScission linker may be left after cleavage; also called ligand-free human ClC-3; not shown: mCerulean, C-terminal, cleaved) MESEQLFHRGYYRNSYNSITSASSDEELLDGAGVIMDFQTSEDDNLLDGDTAVGTHYTMTNGGSINSSTHLLDLLDEPIPGVGTYDDFHTIDWVREKCKDRERHRRINSKKKESAWEMTKSLYDAWSGWLVVTLTGLASGALAGLIDIAADWMTDLKEGICLSALWYNHEQCCWGSNETTFEERDKCPQWKTWAELIIGQAEGPGSYIMNYIMYIFWALSFAFLAVSLVKVFAPYACGSGIPEIKTILSGFIIRGYLGKWTLMIKTITLVLAVASGLSLGKEGPLVHVACCCGNIFSYLFPKYSTNEAKKREVLSAASAAGVSVAFGAPIGGVLFSLEEVSYYFPLKTLWRSFFAALVAAFVLRSINPFGNSRLVLFYVEYHTPWYLFELFPFILLGVFGGLWGAFFIRANIAWCRRRKSTKFGKYPVLEVIIVAAITAVIAFPNPYTRLNTSELIKELFTDCGPLESSSLCDYRNDMNASKIVDDIPDRPAGIGVYSAIWQLCLALIFKIIMTVFTFGIKVPSGLFIPSMAIGAIAGRIVGIAVEQLAYYHHDWFIFKEWCEVGADCITPGLYAMVGAAACLGGVTRMTVSLVVIVFELTGGLEYIVPLMAAVMTSKWVGDAFGREGIYEAHIRLNGYPFLDAKEEFTHTTLAADVMRPRRNDPPLAVLTQDNMTVDDIENMINETSYNGFPVIMSKESQRLVGFALRRDLTIAIESARKKQEGIVGSSRVCFAQHTPSLPAESPRPLKLRSILDMSPFTVTDHTPMEIVVDIFRKLGLRQCLVTHNGRLLGIITKKDILRHMAQTANQDPASIMFN | 2 | –
human ClC-3 purified in complex with T9A (N-terminal mCerulean tag removed) (natural protein, human ClC-3 (P51790), the long isoform used for structural analysis (proton glutamate E339); Residues of the PreScission linker may be left on the N-terminus after cleavage; PtdIns(3,5)P2 co-purified with the complex; also called ClC-3/T9A; ClC-3/noT9A; not shown: mCerulean, N-terminal, cleaved) MESEQLFHRGYYRNSYNSITSASSDEELLDGAGVIMDFQTSEDDNLLDGDTAVGTHYTMTNGGSINSSTHLLDLLDEPIPGVGTYDDFHTIDWVREKCKDRERHRRINSKKKESAWEMTKSLYDAWSGWLVVTLTGLASGALAGLIDIAADWMTDLKEGICLSALWYNHEQCCWGSNETTFEERDKCPQWKTWAELIIGQAEGPGSYIMNYIMYIFWALSFAFLAVSLVKVFAPYACGSGIPEIKTILSGFIIRGYLGKWTLMIKTITLVLAVASGLSLGKEGPLVHVACCCGNIFSYLFPKYSTNEAKKREVLSAASAAGVSVAFGAPIGGVLFSLEEVSYYFPLKTLWRSFFAALVAAFVLRSINPFGNSRLVLFYVEYHTPWYLFELFPFILLGVFGGLWGAFFIRANIAWCRRRKSTKFGKYPVLEVIIVAAITAVIAFPNPYTRLNTSELIKELFTDCGPLESSSLCDYRNDMNASKIVDDIPDRPAGIGVYSAIWQLCLALIFKIIMTVFTFGIKVPSGLFIPSMAIGAIAGRIVGIAVEQLAYYHHDWFIFKEWCEVGADCITPGLYAMVGAAACLGGVTRMTVSLVVIVFELTGGLEYIVPLMAAVMTSKWVGDAFGREGIYEAHIRLNGYPFLDAKEEFTHTTLAADVMRPRRNDPPLAVLTQDNMTVDDIENMINETSYNGFPVIMSKESQRLVGFALRRDLTIAIESARKKQEGIVGSSRVCFAQHTPSLPAESPRPLKLRSILDMSPFTVTDHTPMEIVVDIFRKLGLRQCLVTHNGRLLGIITKKDILRHMAQTANQDPASIMFN | – | 2
